{
  "source": "paper PMC3607736",
  "about": "“HAD hydrolase function unveiled by substrate screening: enzymatic characterization of Arabidopsis thaliana subclass I phosphosugar phosphatase AtSgpp” (Planta, 2012)",
  "substrate": "O=P(O)(O)OCC(O)CO",
  "assay": "inorganic phosphate release (Ames), non-linear regression",
  "format": "biochemical, Arabidopsis thaliana",
  "details": "20 mM Tris-HCl pH 7.0, 5 mM MgCl2, 32 °C, apparent Km, MBP fusion",
  "from_the_text": "inorganic phosphate release (Ames), non-linear regression on AtSgpp (MBP-AtSgpp, At2g38740)",
  "data": [
    {"protein": "AtSgpp (MBP-AtSgpp, At2g38740) (Arabidopsis thaliana) (protein, N-terminal MBP fusion (pMAL-c2X, Ile-Ser-Glu-Phe linker before Met1); E. coli TB1, amylose resin) MNGFSDLNPSESKPSLSQLAPLEAILFDVDGTLCDSDPIHLIAFQELLQEIGFNNGVPIDEKFFVENIAGKHNSEIALLLFPDDVSRGLKFCDEKEALYRKIVAEKIKPLDGLIKLTKWIEDRGLKRAAVTNAPKENAELMISKLGLTDFFQAVILGSECEFPKPHPGPYLKALEVLNVSKEHTLVFEDSISGIKAGVAAGMPVIGLTTGNPASLLMQAKPAFLIENYADPKLWAVLEELDNKS", "values": [
      {"measurement": "Km", "value": "(7.3 ± 0.2) × 10^−3 M"},
      {"measurement": "Vmax", "value": 0.498, "unit": "µmol/min"},
      {"measurement": "kcat", "value": "23 ± 3", "unit": "s⁻¹"},
      {"measurement": "kcat/Km", "value": 3100, "unit": "M⁻¹ s⁻¹"}
    ]}
  ]
}
